Experiment [1] addresses T1, JAK-1 (UniProt P23458 1-1154, limits assumed).
T1 construct: whole, on cells; Tested in cell lysates
Kind of experiment: anti-Tac immunoprecipitation, JAK-1 Western blot, COS-7 cotransfectants. (Immunoblotting shows a protein as a band on a membrane.)

For experiment [2], the target named is T2, common γ chain of the IL-2 receptor, wild type (UniProt P31785 23-369, limits assumed).
T2 construct: whole, on cells; Tested in cell lysates; also called wild type γc
T2 sequence (looked up): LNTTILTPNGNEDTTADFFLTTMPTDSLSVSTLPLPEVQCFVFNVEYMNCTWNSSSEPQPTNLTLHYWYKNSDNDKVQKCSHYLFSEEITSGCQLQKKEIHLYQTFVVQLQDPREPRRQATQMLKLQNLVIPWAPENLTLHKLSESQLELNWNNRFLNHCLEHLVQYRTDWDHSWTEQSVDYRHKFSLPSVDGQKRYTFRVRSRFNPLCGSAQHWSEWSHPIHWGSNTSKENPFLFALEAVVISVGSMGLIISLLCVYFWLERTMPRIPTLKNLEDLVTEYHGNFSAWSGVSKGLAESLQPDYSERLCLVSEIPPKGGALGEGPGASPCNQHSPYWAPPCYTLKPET
Kind of experiment: co-immunoprecipitation from YT cell lysates with R878, JAK-3 Western blot.

T1 sequence (P23458 whole entry): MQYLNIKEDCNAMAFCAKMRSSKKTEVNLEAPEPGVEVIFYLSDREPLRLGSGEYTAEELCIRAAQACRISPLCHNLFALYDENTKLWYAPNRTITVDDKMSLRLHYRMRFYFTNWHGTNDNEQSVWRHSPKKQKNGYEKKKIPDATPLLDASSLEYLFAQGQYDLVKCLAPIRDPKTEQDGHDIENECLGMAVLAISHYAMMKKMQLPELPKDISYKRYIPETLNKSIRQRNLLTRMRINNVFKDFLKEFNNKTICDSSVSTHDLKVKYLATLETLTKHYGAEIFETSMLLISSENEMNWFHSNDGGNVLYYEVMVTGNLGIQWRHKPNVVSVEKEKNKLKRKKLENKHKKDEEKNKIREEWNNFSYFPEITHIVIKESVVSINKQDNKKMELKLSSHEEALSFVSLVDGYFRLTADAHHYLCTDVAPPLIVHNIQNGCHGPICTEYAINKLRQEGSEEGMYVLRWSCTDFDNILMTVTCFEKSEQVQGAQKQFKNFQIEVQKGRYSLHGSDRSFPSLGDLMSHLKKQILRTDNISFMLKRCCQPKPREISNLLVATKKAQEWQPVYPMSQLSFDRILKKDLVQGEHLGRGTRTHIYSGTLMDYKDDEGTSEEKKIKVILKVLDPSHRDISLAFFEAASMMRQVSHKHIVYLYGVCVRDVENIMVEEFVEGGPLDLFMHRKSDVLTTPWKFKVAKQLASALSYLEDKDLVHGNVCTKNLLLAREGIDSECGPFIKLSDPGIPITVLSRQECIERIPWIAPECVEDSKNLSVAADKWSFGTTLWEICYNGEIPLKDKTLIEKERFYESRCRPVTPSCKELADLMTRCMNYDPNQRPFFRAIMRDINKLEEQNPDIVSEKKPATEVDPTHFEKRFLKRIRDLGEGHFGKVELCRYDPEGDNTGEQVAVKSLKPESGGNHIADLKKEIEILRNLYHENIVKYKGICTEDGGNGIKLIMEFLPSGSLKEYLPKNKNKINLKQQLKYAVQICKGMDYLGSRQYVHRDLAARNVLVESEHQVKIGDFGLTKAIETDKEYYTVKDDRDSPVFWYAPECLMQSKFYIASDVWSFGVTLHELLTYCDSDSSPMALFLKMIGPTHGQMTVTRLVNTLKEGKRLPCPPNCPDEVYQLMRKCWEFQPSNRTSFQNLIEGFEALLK

B1: chimeric α/γ/γ receptor chain (receptor, UniProt P01589 22-240, looked up)
chain: ELCDDDPPEIPHATFKAMAYKEGTMLNCECKRGFRRIKSGSLYMLCTGNSSHSSWDNQCQCTSSATRNTTKQVTPQPEEQKERKTTEMQSPMQPVDQASLPGHCREPPPWENEATERIYHFVVGQMVYYQCVQGYRALHRGPAESVCKMTHGKTRWTQPQLICTGEMETSQFPGEEKPQASPEGRPESETSCLVTTTDFQIQTEMAATMETSIFTTEYQVVISVGSMGLIISLLCVYFWLERTMPRIPTLKNLEDLVTEYHGNFSAWSGVSKGLAESLQPDYSERLCLVSEIPPKGGALGEGPGASPCNQHSPYWAPPCYTLKPET
For B1, the binding result in experiment [1] is “no binding”.

B2: JAK-3 protein (enzyme)
chain: MAPPSEETPLIPQRSCSLLSTEAGALHVLLPARAPGPPQRLSFSFGDHLAEDLCVQAAKASGILPVYHSLFALATEDLSCWFPPSHIFSVEDASTQVLLYRIRFYFPNWFGLEKCHRFGLRKDLASAILDLPVLEHLFAQHRSDLVSGRLPVGLSLKEQGECLSLAVLDLARMAREQAQRPGELLKTVSYKACLPPSLRDLIQGLSFVTRRAIRRTVRRALPRVAACQADRHSLMAKYIMDLERLDPAGAAETFHVGLPGALGGHDGLGLLRVAGDGGIAWTQGEQEVLQPFCDFPEIVDISIKQAPRVGPAGEHRLVTVTRTDNQILEAEFPGLPEALSFVALVDGYFRLTTDSQHFFCKEVAPPRLLEEVAEQCHGPITLDFAINKLKTGGSRPGSYVLRRSPQDFDSFLLTVCVQNPLGPDYKGCLIRRSPTGTFLLVGLSRPHSSLRELLATCWDGGLHVDGVAVTLTSCCIPRPKEKSNLIVVQRGHSPPTSSLVQPQSQYQLSQMTFHKIPADSLEWHENLGHGSFTKIYRGCRHEVVDGEARKTEVLLKVMDAKHKNCMESFLEAASLMSQVSYRHLVLLHGVCMAGDSTMVQEFVHLGAIDMYLRKRGHLVPASWKLQVVKQLAYALNYLEDKGLPHGNVSARKVLLAREGADGSPPFIKLSDPGVSPAVLSLEMLTDRIPWVAPECLREAQTLSLEADKWGFGATVWEVFSGVTMPISALDPAKKLQFYEDRQQLPAPKWTELALLIQQCMAYEPVQRPSFRAVIRDLNSLISSDYELLSDPTPGALAPRDGLWNGAQLYACQDPTIFEERHLKYISQLGKGNFGSVELCRYDPLAHNTGALVAVKQLQHSGPDQQRDFQREIQILKALHSDFIVKYRGVSYGPGRPELRLVMEYLPSGCLRDFLQRHRARLDASRLLLYSSQICKGMEYLGSRRCVHRDLAARNILVESEAHVKIADFGLAKLLPLDKDYYVVREPGQSPIFWYAPESLSDNIFSRQSDVWSFGVVLYELFTYCDKSCSPSAEFLRMMGCERDVPALCRLLELLEEGQRLPAPPACPAEVHELMKLCWAPSPQDRPSFSALGPQLDMLWSGSRGCETHAFTAHPEGKHHSLSFS
notes: Intracellular kinase of 1124 residues; Tested as the endogenous protein in lysates of HUT-78, YT, NK and NK3.3 cells, or as recombinant protein in lysates of transfected COS-7 cells; also called L-JAK; human JAK-3
As for B2, in experiment [2], the binding result was “binds”.

The values are drawn from patent publication US7070972 (US Dept. of Health and Human Services, dated 2006).
